Positions count from the first letter of the chain named.
T1: fHbp m001180 (Neisseria meningitidis fHbp v3.28-based …, point mutant)
T1 chain: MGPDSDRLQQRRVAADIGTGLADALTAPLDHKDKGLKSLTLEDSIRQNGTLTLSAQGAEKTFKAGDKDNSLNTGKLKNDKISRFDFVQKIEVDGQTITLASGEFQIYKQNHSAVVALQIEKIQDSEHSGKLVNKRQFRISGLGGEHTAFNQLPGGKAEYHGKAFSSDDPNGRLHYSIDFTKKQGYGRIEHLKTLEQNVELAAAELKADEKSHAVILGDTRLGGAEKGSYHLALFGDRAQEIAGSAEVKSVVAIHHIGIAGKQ

T2: fHbp m001672 (Neisseria meningitidis, fHbp …, point mutant)
T2 chain: T1 chain with G222N, V250D, V251N

T3: fHbp m002256 (Neisseria meningitidis, engineered fHbp …, chimera)
T3 chain: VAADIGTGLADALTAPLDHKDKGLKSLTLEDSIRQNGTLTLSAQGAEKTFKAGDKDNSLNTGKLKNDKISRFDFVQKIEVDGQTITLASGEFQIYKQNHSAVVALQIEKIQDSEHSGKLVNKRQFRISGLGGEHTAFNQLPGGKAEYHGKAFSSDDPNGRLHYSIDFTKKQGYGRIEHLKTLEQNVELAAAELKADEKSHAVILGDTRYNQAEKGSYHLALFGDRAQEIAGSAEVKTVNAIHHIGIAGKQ

T4: fHbp m001720 (Neisseria meningitidis, engineered fHbp …, point mutant)
T4 chain: T3 chain with Y209L, Q211G, T237I, N239V

T5: fHbp m001177 (Neisseria meningitidis fHbp v3.28-based …, point mutant)
T5 chain: T1 chain with V251N

T6: fHbp m001199 (Neisseria meningitidis fHbp v3.28-based …, point mutant)
T6 chain: T1 chain with S249T, V251E, A252G

T7: fHbp m002281 (Neisseria meningitidis, engineered fHbp …, chimera)
T7 chain: T3 chain with T237I, A240G

T8: fHbp m001688 (Neisseria meningitidis, engineered fHbp …, point mutant)
T8 chain: T3 chain with Y209L, Q211G, A240G

T9: fHbp m001621 (Neisseria meningitidis, fHbp …, point mutant)
T9 chain: T1 chain with G222N, G223S, S249T, V250D

B1: chimeric antibody h12C1 (antibody, V domains shown)
VH: QVQLQESGPELVKPGASVKISCKASGYSFSDYNMSWVKQSNGKSLEWIGIIDPKYGTINYNQKFKGKATLTVDQASSTAYMQLNSLTSEDSAVYYCVRDYYGSSYFDYWGQGTTLTVSS
VL: DIVLTQSPSSIYASLGERVTLTCKASQDIHNYLNWFQQKPGKSPKTLIYRANRLVDGVPSRFSGGGSGQDYSLTISSLEFEDIGIYYCLQYDEFPPTFGGGTRLEIK
notes: also called humanized 12C1; source: Expi293, purified (MabSelect SuRe, SEC); copies: 2 + 2
B2: mAb 1E6 (human) (antibody, V domains shown)
VH: EVQLVQSGAEVKKPGSSVKVSCKASGGTVIDYPITWVRQAPGQGLEWVGGFVPLFRTSNYGQKFQGRVTITADKSTSTASMELNSLTSEDTAIYYCARGDTAMGPFDYWGQGTLVTVSS
VL: SYVLTQPPSLSVAPGKTATLTCGGNNIAGKTVHWYQQRPGQAPVLVISYDSDRPSGIPERFSGSNSANTATLTISRVEAGDEADYYCQVWDRNSDHWVFGGGTKLTVL
notes: source: Expi293, purified (MabSelect SuRe, SEC); copies: 2 + 2

Legend:
Assay in all cases: BLI
Details in all cases: both partners purified
fHbp m001180 = target: T1, fHbp m001180
fHbp m001672 = target: T2, fHbp m001672
fHbp m002256 = target: T3, fHbp m002256
fHbp m001720 = target: T4, fHbp m001720
fHbp m001177 = target: T5, fHbp m001177
fHbp m001199 = target: T6, fHbp m001199
fHbp m002281 = target: T7, fHbp m002281
fHbp m001688 = target: T8, fHbp m001688
fHbp m001621 = target: T9, fHbp m001621

| Binder | Kd (fHbp m001180) [nM] | koff (fHbp m001180) [s⁻¹] | kon (fHbp m001180) [M⁻¹ s⁻¹] | Kd (fHbp m001672) [nM] | koff (fHbp m001672) [s⁻¹] | kon (fHbp m001672) [M⁻¹ s⁻¹] | Kd (fHbp m002256) [nM] | koff (fHbp m002256) [s⁻¹] | kon (fHbp m002256) [M⁻¹ s⁻¹] | Kd (fHbp m001720) [nM] | koff (fHbp m001720) [s⁻¹] | kon (fHbp m001720) [M⁻¹ s⁻¹] | Kd (fHbp m001177) [nM] | koff (fHbp m001177) [s⁻¹] | kon (fHbp m001177) [M⁻¹ s⁻¹] | Kd (fHbp m001199) [nM] | koff (fHbp m001199) [s⁻¹] | kon (fHbp m001199) [M⁻¹ s⁻¹] | Kd (fHbp m002281) [nM] | koff (fHbp m002281) [s⁻¹] | other results |
| --- | --- | --- | --- | --- | --- | --- | --- | --- | --- | --- | --- | --- | --- | --- | --- | --- | --- | --- | --- | --- | --- |
| B1 | 69.9 | 0.0158 | 227000 ± 3250 | 117 | 0.01791 ± 0.000106 | 154000 ± 3920 | 43.6 | 0.0102 | 235000 ± 5060 | 1.04 | 0.000368 | 354900 ± 1290 | 92.7 | 0.02257 ± 0.000177 | 244000 ± 9380 | 25.1 | 0.0095 | 378900 ± 3300 | 34.9 | 0.0105 | kon (fHbp m002281): 300000 ± 6700 M⁻¹ s⁻¹; Kd (fHbp m001688): 53.8 nM; koff (fHbp m001688): 0.0106 s⁻¹; kon (fHbp m001688): 197000 ± 3980 M⁻¹ s⁻¹; Kd (fHbp m001621): 54 nM; koff (fHbp m001621): 0.0115 s⁻¹; kon (fHbp m001621): 214000 ± 5580 M⁻¹ s⁻¹ |
| B2 | 0.574 | 0.000278 | 485200 ± 1980 | 1 | 0.00032 | 320000 ± 1490 | 0.23 | 0.000106 | 460600 ± 4450 | 0.788 | 0.000292 | 370200 ± 1240 | 0.609 | 0.000279 | 457500 ± 1660 | 0.329 | 0.000132 | 400500 ± 3250 | 0.217 | 0.0001 | kon (fHbp m002281): 462500 ± 3370 M⁻¹ s⁻¹; Kd (fHbp m001688): 0.937 nM; koff (fHbp m001688): 0.000258 s⁻¹; kon (fHbp m001688): 275900 ± 1570 M⁻¹ s⁻¹; Kd (fHbp m001621): 0.464 nM; koff (fHbp m001621): 0.000174 s⁻¹; kon (fHbp m001621): 375400 ± 1900 M⁻¹ s⁻¹ |

Reference: publication PMC12319226 (Frontiers in Bioinformatics, 2025)
